B1: Trigger factor (Thermotoga maritima (strain ATCC 43589 / MSB8 / DSM 3109 / JCM 10099)), Q9WZF8 (parent)
chain: MEVKELERDKNRVVLEYVFGAEEIAQAEDKAVRYLNQRVEIPGFRKGRIPKNVLKMKLGEEFQEYTLDFLMDLIPDTLKDRKLILSPIVTERELKDVTARVVVEVHEEPEVRIGDISKIEVEKVDEEKVLEKYVERRIEDLRESHALLEPKEGPAEAGDLVRVNMEVYNEEGKKLTSREYEYVISEDEDRPFVKDLVGKKKGDVVEIEREYEGKKYTYKLEVEEVYKRTLPEIGDELAKSVNNEFETLEQLKESLKKEGKEIYDVEMKESMREQLLEKLPEIVEIEISDRTLEILVNEAINRLKREGRYEQIVSSYESEEKFREELKERILDDIKRDRVIEVLAQEKGISVNDEELEKEAEELAPFWGISPDRAKSLVKARQDLREELRWAILKRKVLDLLLQEVKVKVVEPKGEGDDSEGKEDN
partner: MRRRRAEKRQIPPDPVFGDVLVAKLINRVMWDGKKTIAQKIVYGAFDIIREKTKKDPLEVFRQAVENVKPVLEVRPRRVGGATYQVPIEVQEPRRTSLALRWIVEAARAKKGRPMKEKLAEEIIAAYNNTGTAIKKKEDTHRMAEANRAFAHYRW

This experiment covers variants of B1. As to conditions: with rs7_thema rpsG.
As to E266R;E269R;E273R, the “effect of a mutation on the interaction” value is reported as “disrupting interaction”.

The record behind these values is IntAct's records for PubMed 19737520.
